From publication PMC9210283, “DNA cytosine methylation at the lexA promoter of Escherichia coli is stationary phase specific”

Columns and labels:
LexA [1] = target: T1, LexA (Escherichia coli, UniProt P0A7C2 1-202); assay: EMSA; concentration as LexA dimer; Hill slope 1.1; 10 mM MgCl2; EMSA: 70 mM Tris-HCl pH 7.5, 2 mM PIPES, 180 mM NaCl, 10 mM MgCl2, 1 ug/ml salmon sperm DNA, 100 ug/ml BSA, 5% glycerol, 0.006% bromophenol blue, 0.1 nM probe; conditions: protein: recombinant; chain copies: 2; label: 32P (5' on strand 1); blunt
T1 sequence (P0A7C2 whole entry): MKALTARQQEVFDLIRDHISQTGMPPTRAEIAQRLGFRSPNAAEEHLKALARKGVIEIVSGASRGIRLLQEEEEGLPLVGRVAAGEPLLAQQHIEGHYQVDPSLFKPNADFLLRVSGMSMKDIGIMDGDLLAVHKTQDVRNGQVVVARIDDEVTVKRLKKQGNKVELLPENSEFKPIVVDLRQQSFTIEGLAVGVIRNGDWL

LexA [2] = target: T1, LexA; assay: EMSA; concentration as LexA dimer; Hill slope 1.2; 10 mM MgCl2; EMSA: 70 mM Tris-HCl pH 7.5, 2 mM PIPES, 180 mM NaCl, 10 mM MgCl2, 1 ug/ml salmon sperm DNA, 100 ug/ml BSA, 5% glycerol, 0.006% bromophenol blue, 0.1 nM probe; conditions: protein: recombinant; chain copies: 2; label: 32P (5' on strand 1); blunt

B1: lexAop 5mC/5mC (mC16 F / mC3 R) (dsDNA)
DNA 1: AATGCCTGCGGAAACTGTATATACACCCAGGGTCAATTCTGGCT
DNA 2: AGCCAGAATTGACCCTGGGTGTATATACAGTTTCCGCAGGCATT
modifications: 5-methyl-dC at position 28 of strand 1 and position 15 of strand 2
Kd (LexA [1]): 14 nM

B2: lexAop C/C (nonmethylated) (dsDNA)
DNA 1: B1 DNA 1
DNA 2: B1 DNA 2
Kd (LexA [2]): 15 nM
